For one substance, IC50 results are on record in patent US20030194403A1.

A word on the IC50: it is the point on the concentration scale where inhibition reaches its midpoint.

The target in the assay is soluble epidermal growth factor receptor (EGFR), purified from A431 cells (Sigma E 3641) (human) (UniProt P00533). The assay is described as follows: ELISA, inhibition of EGF-biotin binding to immobilized EGFR (FIG. 8). For orientation: In an ELISA, binding on a coated surface is turned into a signal by an enzyme label.

In turn, “m225, a mouse IgG2a anti-EGFR antibody (hybridoma ATCC HB-8508)” had an IC50 of 30 nM.
